Source: PMC4838387, “PolDIP2 interacts with human PrimPol and enhances its DNA polymerase activities”
Blank lines part the entries; values can stand above or below the binder they belong to.

What was measured:
[1] = biological target: T1, full-length human PrimPol (human) (UniProt Q96LW4)
T1 sequence: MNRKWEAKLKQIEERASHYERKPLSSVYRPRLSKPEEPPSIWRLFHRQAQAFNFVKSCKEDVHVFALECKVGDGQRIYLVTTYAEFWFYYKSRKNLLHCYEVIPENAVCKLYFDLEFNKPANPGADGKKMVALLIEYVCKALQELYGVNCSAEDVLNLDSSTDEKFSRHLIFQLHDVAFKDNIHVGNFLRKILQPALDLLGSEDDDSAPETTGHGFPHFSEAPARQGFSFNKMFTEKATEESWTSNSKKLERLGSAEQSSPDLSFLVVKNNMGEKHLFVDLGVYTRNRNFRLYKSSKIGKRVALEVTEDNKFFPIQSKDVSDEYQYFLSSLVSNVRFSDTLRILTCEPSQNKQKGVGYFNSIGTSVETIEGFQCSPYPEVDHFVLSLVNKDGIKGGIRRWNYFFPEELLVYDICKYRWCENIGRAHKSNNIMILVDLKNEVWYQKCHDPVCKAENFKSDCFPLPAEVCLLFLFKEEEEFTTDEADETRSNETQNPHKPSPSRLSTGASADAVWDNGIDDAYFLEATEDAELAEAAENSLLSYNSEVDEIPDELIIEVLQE

[2] = biological target: T2, PrimPol^1–354 (human) (UniProt Q96LW4)
T2 sequence: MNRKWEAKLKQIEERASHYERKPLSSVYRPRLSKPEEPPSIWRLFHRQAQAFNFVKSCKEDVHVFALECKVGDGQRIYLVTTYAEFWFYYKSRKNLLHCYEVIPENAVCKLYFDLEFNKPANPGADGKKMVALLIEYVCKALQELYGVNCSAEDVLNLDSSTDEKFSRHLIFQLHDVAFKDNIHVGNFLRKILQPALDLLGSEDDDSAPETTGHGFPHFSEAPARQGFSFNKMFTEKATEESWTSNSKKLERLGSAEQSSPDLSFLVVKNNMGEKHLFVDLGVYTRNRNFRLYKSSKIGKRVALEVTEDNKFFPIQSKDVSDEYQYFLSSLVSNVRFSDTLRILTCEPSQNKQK

[3] = biological target: T3, PrimPol24-354 (AEP catalytic domain) (human, UniProt Q96LW4 24-354); test: EMSA; PrimPol 0.05-1 uM, 10 mM Mg2+, no PolDIP2; EMSA: 10 mM Bis-Tris-propane-HCl pH 7.0, 10 mM MgCl2, 100 uM DTT, 20 nM DNA; 5% native PAGE, 0.5x TBE; binding temperature not stated; details: protein: recombinant; label: 5'-HEX on primer; 3'-biotin on template; 20 bp duplex; template 5' overhang 77 nt
T3 sequence: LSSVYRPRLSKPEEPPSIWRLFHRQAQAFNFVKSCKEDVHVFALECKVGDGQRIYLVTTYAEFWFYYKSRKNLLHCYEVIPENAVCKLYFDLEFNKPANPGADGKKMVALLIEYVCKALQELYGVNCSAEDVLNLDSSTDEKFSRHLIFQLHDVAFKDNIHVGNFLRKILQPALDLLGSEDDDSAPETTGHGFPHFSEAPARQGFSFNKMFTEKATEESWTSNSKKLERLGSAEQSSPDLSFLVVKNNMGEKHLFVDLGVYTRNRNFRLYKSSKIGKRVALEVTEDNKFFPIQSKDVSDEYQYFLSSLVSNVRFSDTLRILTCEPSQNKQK

[4] = biological target: T4, PolDIP2 (untagged) (UniProt Q9Y2S7 1-368); test: EMSA; PolDIP2 alone (100 nM in Fig 2A), 10 mM Mg2+; EMSA: 10 mM Bis-Tris-propane-HCl pH 7.0, 10 mM MgCl2, 100 uM DTT, 20 nM DNA; 5% native PAGE, 0.5x TBE; binding temperature not stated; details: protein: recombinant; tags: none (GST cleaved with PreScission protease); label: 5'-HEX on primer; 3'-biotin on template; 20 bp duplex; template 5' overhang 77 nt
T4 sequence: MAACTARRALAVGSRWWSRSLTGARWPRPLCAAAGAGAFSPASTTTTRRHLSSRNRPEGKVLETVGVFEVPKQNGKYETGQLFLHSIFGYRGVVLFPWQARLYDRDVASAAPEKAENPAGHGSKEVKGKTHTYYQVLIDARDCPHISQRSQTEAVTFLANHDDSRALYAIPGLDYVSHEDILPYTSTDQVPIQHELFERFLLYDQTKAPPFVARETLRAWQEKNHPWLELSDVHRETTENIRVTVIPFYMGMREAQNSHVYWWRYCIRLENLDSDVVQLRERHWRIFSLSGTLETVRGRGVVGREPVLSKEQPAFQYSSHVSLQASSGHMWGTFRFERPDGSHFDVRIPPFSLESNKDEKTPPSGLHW

K half of the stimulation of primer extension by PrimPol (20 nM) on 20/50-mer DNA, GST-PolDIP2 0-120 nM [1]: 41 nM
K half of the stimulation of primer extension by PrimPol 1-354 (20 nM) on 20/50-mer DNA, GST-PolDIP2 0-120 nM [2]: 33.9 nM
B1: GST-PolDIP2 (natural protein)
chain: SSRNRPEGKVLETVGVFEVPKQNGKYETGQLFLHSIFGYRGVVLFPWQARLYDRDVASAAPEKAENPAGHGSKEVKGKTHTYYQVLIDARDCPHISQRSQTEAVTFLANHDDSRALYAIPGLDYVSHEDILPYTSTDQVPIQHELFERFLLYDQTKAPPFVARETLRAWQEKNHPWLELSDVHRETTENIRVTVIPFYMGMREAQNSHVYWWRYCIRLENLDSDVVQLRERHWRIFSLSGTLETVRGRGVVGREPVLSKEQPAFQYSSHVSLQASSGHMWGTFRFERPDGSHFDVRIPPFSLESNKDEKTPPSGLHW

B2: 20/97-mer primer/template (HP-20 / ND-97) (mixed)
DNA 1: TGTCGTCTGTTCGGTCGTTC
DNA 2: ACCGCGAACTTGAATTCTAGTTCAGTCTAAATGCTCTCAAGCACTGAGCAATTCACAACATATGGCTTTCGATTACCGAACGACCGAACAGACGACA
binding result [3]: binds
binding result [4]: no binding
